The supplement of paper PMC10724198
± gives the standard deviation of the averaged measurements.

Each sequence was assayed on Saccharomyces cerevisiae (assay: protein stability index of tFT-peptide fusion (C-terminal peptide) (PSI (0-1 scale)); higher = more stable (slower turnover)). Details: genetic background: wild type; temperature: 30 C.
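Note: PSI is a weighted mean of sequencing reads over stability bins, variants kept only with over 10 reads, mCherry proximal and sfGFP distal, peptide attached via GGGS linker.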

In order of falling protein stability index:
1. LPPPPPPPPPSP  0.82377 ± 0.00068
2. LPAPGRPSPCRL  0.809 ± 0.041
3. LPPSSLPLPCLL  0.793 ± 0.21
4. LPSPAFLTPPPL  0.788 ± 0.1
5. LPPPTPPPPLLP  0.779 ± 0.093
6. LPRALLLHGHRP  0.771 ± 0.067
7. LLPSAAKLTLLP  0.77 ± 0.07
8. LLPPPVFPPLSP  0.753 ± 0.013
9. LLRSEETTIEPF  0.7531 ± 0.004
10. LLPPTLHPPHLP  0.751 ± 0.0096
11. LPPSSSPSYIFS  0.744 ± 0.047
12. LPAPSPPSFPAP  0.743 ± 0.099
13. LPSARSLVSPSP  0.74 ± 0.0092
14. LQHCSAPLLTNS  0.74 ± 0.085
15. LLPRSSPTPLAH  0.735 ± 0.066
16. LPNRRRLFLFPS  0.735 ± 0.05
17. LLSFFLSPPSIL  0.734 ± 0.02
18. LLPPGSSSRVAL  0.733 ± 0.022
19. LPLPPSFVHLPF  0.732 ± 0.05
20. LPSPHPPPPPAH  0.727 ± 0.081
21. LPSPSSSPPPFP  0.7274 ± 0.0013
22. LPPPTSFPSFPP  0.724 ± 0.027
23. LPLRLVPLFSPP  0.722 ± 0.025
24. LLYPALQHVSSV  0.721 ± 0.12
25. LPAPPPHPLSPV  0.7161 ± 0.0063
26. LPASPGSVPFLF  0.716 ± 0.084
27. LPISASLLSFPL  0.716 ± 0.048
28. LPPPHPPFPPRF  0.715 ± 0.059
29. LPLASIYQLRSN  0.713 ± 0.039
30. LPLPSPLLPPRP  0.712 ± 0.0051
31. LPPPPPSRSRPV  0.712 ± 0.039
32. LPPAFRIPHTWY  0.71 ± 0.0071
33. LPPTPSSPPPPL  0.709 ± 0.06
34. LLPPPLPQAPPT  0.708 ± 0.03
35. LPHSPSLPPAFP  0.708 ± 0.032
36. LLRPPSAPSTLL  0.706 ± 0.084
37. LLSASPASLSFL  0.706 ± 0.054
38. LPHTRPLPPRVD  0.704 ± 0.015
39. LPYSAPPISLTN  0.702 ± 0.011
40. LQPPAPPSPQSD  0.702 ± 0.081
41. LPPLPPSPPSPR  0.697 ± 0.029
42. LPDPPEPHLRLP  0.694 ± 0.025
43. LPFLPPPPPLRP  0.694 ± 0.11
44. LPPPLPSTRPVF  0.6943 ± 0.005
45. LPPPPLTLPPPP  0.694 ± 0.02
46. LPHFHPPLDPPA  0.692 ± 0.0079
47. LPVPTLGRPLSL  0.69 ± 0.034
48. LLPPPPTPPLNL  0.688 ± 0.033
49. LPSRLPPQPSPA  0.687 ± 0.071
50. LLPSAAPPPQFL  0.686 ± 0.035
51. LLPSRAPTSIPL  0.686 ± 0.037
52. LLQQILKDYAEI  0.686 ± 0.033
53. LRAPRGEFHWFL  0.684 ± 0.11
54. LLPPPLPPLHSS  0.6828 ± 0.0054
55. LLTGVPRFSLDS  0.683 ± 0.014
56. LPPHPPREAPPN  0.682 ± 0.083
57. LPFRPWLPRSLI  0.68 ± 0.059
58. LPLPPLLPPPSP  0.68 ± 0.073
59. LPPPSPPPPPSP  0.68 ± 0.028
60. LLPPQPYTPLHL  0.679 ± 0.13
61. LPPPRPPASPSL  0.677 ± 0.033
62. LPDPPLSPPPVR  0.675 ± 0.016
63. LPPPSFPSISLF  0.675 ± 0.14
64. LLSRLWPASSSG  0.672 ± 0.08
65. LLTSCLLSCCFR  0.671 ± 0.027
66. LPPSPPTVPSPP  0.67 ± 0.027
67. LLPRQSRYNAHF  0.669 ± 0.075
68. LPHPPTPPLPRP  0.667 ± 0.078
69. LPPGFPYLSQLP  0.666 ± 0.052
70. LQLKNTNKNKTT  0.666 ± 0.047
71. LPLPPLRSSRPL  0.665 ± 0.036
72. LLSLVYSPLSPL  0.664 ± 0.035
73. LPRFRNRFPRRW  0.664 ± 0.036
74. LPTLFPSAPSAI  0.664 ± 0.05
75. LLRTHTTPKLGG  0.661 ± 0.051
76. LPGPDLLSRMAS  0.659 ± 0.019
77. LPSPRRPPTPSA  0.657 ± 0.015
78. LLSLSGVLLVPP  0.656 ± 0.013
79. LPSPISLSPPLP  0.652 ± 0.051
80. LQCAVPPRDLTS  0.645 ± 0.074
81. LPSPPPLISLIP  0.644 ± 0.12
82. LLPSPLPPHPPP  0.637 ± 0.053
83. LPAPRFLVPAFL  0.637 ± 0.025
84. LPPVQARDPNWQ  0.6367 ± 0.0014
85. LLSRLVVRGLVS  0.629 ± 0.087
86. LPCPRPVPPSPA  0.626 ± 0.018
87. LPQTVPPPPSPP  0.624 ± 0.06
88. LLRDRRQETILK  0.623 ± 0.092
89. LPPPHPPTPAPP  0.621 ± 0.075
90. LPPRSPLYPLPP  0.613 ± 0.018
91. LPRLHLSPASPP  0.611 ± 0.048
92. LMYGCAQHRNRS  0.61 ± 0.033
93. LLSHLSPCTRIG  0.606 ± 0.051
94. LPILRVVNLMGL  0.5935 ± 0.0048
95. LPLPPASRSAPP  0.589 ± 0.028
96. LMLFCLGCDMSV  0.576 ± 0.027
97. LPLYSFSVDFSF  0.576 ± 0.0059
98. LPVPLFPLFLTS  0.573 ± 0.011
99. LPVVGLVPPARS  0.5103 ± 0.003
100. LLSHPDLPPIPP  0.503 ± 0.086
101. LLSSFIFSILFF  0.496 ± 0.0085
